Changes are numbered by the printed parent chain. Numbers in names are those of the source. Where only a bound is given, the exact number is not on record here.

What is called Kd is the equilibrium constant for the complex coming apart. A high value points to lower affinity.

To fix the notation:
T1: PUF4 RNA-binding domain (Saccharomyces cerevisiae, UniProt P25339 537-888)
T1 sequence: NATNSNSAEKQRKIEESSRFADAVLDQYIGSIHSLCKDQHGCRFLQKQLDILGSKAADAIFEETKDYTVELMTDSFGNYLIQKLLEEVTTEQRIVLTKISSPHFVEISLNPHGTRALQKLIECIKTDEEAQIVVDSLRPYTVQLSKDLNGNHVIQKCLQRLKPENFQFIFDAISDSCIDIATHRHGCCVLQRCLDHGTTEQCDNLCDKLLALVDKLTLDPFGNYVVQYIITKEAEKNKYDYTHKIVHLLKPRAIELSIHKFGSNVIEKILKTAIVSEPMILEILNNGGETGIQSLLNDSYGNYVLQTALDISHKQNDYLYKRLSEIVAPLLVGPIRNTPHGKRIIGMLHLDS

B1: Id_iii_S4_P4E.5_K4.1_C4.3_[C-2A]_H4.1_A4.1_F4.1_T4.2 (ssRNA)
RNA: UUUGACAACUGAUCGUUCUUUCUUAUUGUAUAUUAGUUUCUUUCUCGAUCAGUUGUCUUU
B2: Id_iii_S4_P4E.7_K4.3_C4.3_[C-2G]_H4.3_A4.1_F4.1_T4.2 (ssRNA)
RNA: B1 RNA with A25G, U27A, G28C, U29A, A30C
B3: Id_iii_S4_P4E.7_K4.3_C4.3_[C-2A]_H4.3_A4.1_F4.1_T4.2 (ssRNA)
RNA: B1 RNA with U27A, G28C, U29A, A30C
B4: Id_iii_S4_P4E.6_K4.2_C4.3_[T-1A]_H4.2_A4.1_F4.1_T4.2 (ssRNA)
RNA: B1 RNA with A25C, U26A, G28A
B5: Id_iii_S2_P5E.7_K5.3_C5.3_[C-2G]_H5.3_A5.1_F5.1_T5.2 (ssRNA)
RNA: UUUGAUUAAUAUGAUAUCGUUCUUUCUUGUACACUUAUUAUAUUCUUUCUCGAUAUCAUAUUAAUCUUU
B6: Id_iii_S2_P5E.8_K5.4_C5.3_H5.1_A5.2_F5.1_T5.2_[A12T] (ssRNA)
RNA: B5 RNA with G29C, A31U, C32G, A33U, C34A, U35A, A42U
B7: Id_iii_S2_P5E.7_K5.3_C5.3_[T-1A]_H5.3_A5.1_F5.1_T5.2 (ssRNA)
RNA: B5 RNA with G29C, U30A
B8: Id_iii_S2_P5E.7_K5.3_C5.3_[C-2A]_H5.3_A5.1_F5.1_T5.2 (ssRNA)
RNA: B5 RNA with G29A
B9: Id_iii_S2_P5E.8_K5.4_C5.3_[T-3C]_H5.1_A5.2_F5.1_T5.2 (ssRNA)
RNA: B5 RNA with U28C, G29C, A31U, C32G, A33U, C34A, U35A
B10: Id_iii_S2_P5E.7_K5.3_C5.3_H5.3_A5.1_F5.1_T5.2_[A12T] (ssRNA)
RNA: B5 RNA with G29C, A42U
B11: Id_iii_S2_P5E.8_K5.4_C5.3_H5.1_A5.2_F5.1_T5.2_[A12C] (ssRNA)
RNA: B5 RNA with G29C, A31U, C32G, A33U, C34A, U35A, A42C
B12: Id_iii_S2_P5E.8_K5.4_C5.3_H5.1_A5.2_F5.1_T5.2_[A12G] (ssRNA)
RNA: B5 RNA with G29C, A31U, C32G, A33U, C34A, U35A, A42G
B13: Id_iii_S2_P5E.8_K5.4_C5.3_[C-2T]_H5.1_A5.2_F5.1_T5.2 (ssRNA)
RNA: B5 RNA with G29U, A31U, C32G, A33U, C34A, U35A
B14: Id_iii_S2_P5E.7_K5.3_C5.3_[T-1G]_H5.3_A5.1_F5.1_T5.2 (ssRNA)
RNA: B5 RNA with G29C, U30G
B15: Id_iii_S2_P5E.7_K5.3_C5.3_H5.3_A5.1_F5.1_T5.2_[A12C] (ssRNA)
RNA: B5 RNA with G29C, A42C
B16: Id_iii_S2_P5E.7_K5.3_C5.3_[T-1C]_H5.3_A5.1_F5.1_T5.2 (ssRNA)
RNA: B5 RNA with G29C, U30C
B17: Id_iii_S2_P5E.8_K5.4_C5.3_[T-3A]_H5.1_A5.2_F5.1_T5.2 (ssRNA)
RNA: B5 RNA with U28A, G29C, A31U, C32G, A33U, C34A, U35A
B18: Id_iii_S2_P5E.8_K5.4_C5.3_[C-2A]_H5.1_A5.2_F5.1_T5.2 (ssRNA)
RNA: B5 RNA with G29A, A31U, C32G, A33U, C34A, U35A
B19: Id_iii_S2_P5E.8_K5.4_C5.3_[C-2G]_H5.1_A5.2_F5.1_T5.2 (ssRNA)
RNA: B5 RNA with A31U, C32G, A33U, C34A, U35A
B20: Id_iii_S2_P5E.7_K5.3_C5.3_H5.3_A5.1_F5.1_T5.2_[T11C] (ssRNA)
RNA: B5 RNA with G29C, U41C
B21: Ic_S2_P3E.1_K3.1_C3.1_H3.1_A3.1_F3.1_[A8G]_T3.1 (ssRNA)
RNA: UUUGAUUAAUAUGAUAUCGUUCUUUCUUGUAUAUGUUCUUUCUCGAUAUCAUAUUAAUCUUU
B22: Id_iii_S2_P5E.9_K5.5_C5.3_H5.1_A5.2_F5.2_T5.2_[A12G] (ssRNA)
RNA: UUUGAUUAAUAUGAUAUCGUUCUUUCUUCUUGUAAUAAAAUGUUCUUUCUCGAUAUCAUAUUAAUCUUU
B23: Id_iii_S2_P5E.9_K5.5_C5.3_H5.1_A5.2_F5.2_T5.2_[A12T] (ssRNA)
RNA: B22 RNA with G42U
B24: Id_iii_S2_P5E.9_K5.5_C5.3_H5.1_A5.2_F5.2_T5.2_[A12C] (ssRNA)
RNA: B22 RNA with G42C
B25: Id_iii_S4_P3E.5_K3.1_C3.3_[C-2G]_H3.1_A3.1_F3.1_T3.2 (ssRNA)
RNA: UUUGACAACUGAUCGUUCUUUCUUGUUGUAUAUAUAUUCUUUCUCGAUCAGUUGUCUUU
B26: Id_iii_S4_P3E.6_K3.2_C3.3_[C-2G]_H3.2_A3.1_F3.1_T3.2 (ssRNA)
RNA: B25 RNA with G28A
B27: Id_iii_S4_P3E.7_K3.3_C3.3_[T-1A]_H3.3_A3.1_F3.1_T3.2 (ssRNA)
RNA: B25 RNA with G25C, U26A, U27A, G28C, U29A, A30C
B28: Id_iii_S4_P3E.7_K3.3_C3.3_H3.3_A3.1_F3.1_T3.2_[A10C] (ssRNA)
RNA: B25 RNA with G25C, U27A, G28C, U29A, A30C, A36C
B29: Id_iii_S4_P3E.9_K3.5_C3.3_[C-2T]_H3.1_A3.2_F3.2_T3.2 (ssRNA)
RNA: B25 RNA with G25U, U31A, U33A
B30: Id_iii_S4_P3E.8_K3.4_C3.3_H3.1_A3.2_F3.1_T3.2_[A10G] (ssRNA)
RNA: B25 RNA with G25C, U31A, A36G
B31: Id_iii_S4_P3E.9_K3.5_C3.3_[T-3G]_H3.1_A3.2_F3.2_T3.2 (ssRNA)
RNA: B25 RNA with U24G, G25C, U31A, U33A
B32: Id_iii_S4_P3E.7_K3.3_C3.3_[C-2G]_H3.3_A3.1_F3.1_T3.2 (ssRNA)
RNA: B25 RNA with U27A, G28C, U29A, A30C
B33: Id_iii_S4_P3E.6_K3.2_C3.3_H3.2_A3.1_F3.1_T3.2_[A10C] (ssRNA)
RNA: B25 RNA with G25C, G28A, A36C
B34: Id_iii_S4_P3E.9_K3.5_C3.3_H3.1_A3.2_F3.2_T3.2_[A10C] (ssRNA)
RNA: B25 RNA with G25C, U31A, U33A, A36C
B35: Id_iii_S4_P3E.5_K3.1_C3.3_[T-1A]_H3.1_A3.1_F3.1_T3.2 (ssRNA)
RNA: B25 RNA with G25C, U26A
B36: Id_iii_S4_P3E.9_K3.5_C3.3_[T-1A]_H3.1_A3.2_F3.2_T3.2 (ssRNA)
RNA: B25 RNA with G25C, U26A, U31A, U33A
B37: Id_iii_S4_P3E.7_K3.3_C3.3_[T-3A]_H3.3_A3.1_F3.1_T3.2 (ssRNA)
RNA: B25 RNA with U24A, G25C, U27A, G28C, U29A, A30C
B38: Id_iii_S4_P3E.6_K3.2_C3.3_[T-1C]_H3.2_A3.1_F3.1_T3.2 (ssRNA)
RNA: B25 RNA with G25C, U26C, G28A
B39: Id_iii_S4_P3E.8_K3.4_C3.3_[T-1C]_H3.1_A3.2_F3.1_T3.2 (ssRNA)
RNA: B25 RNA with G25C, U26C, U31A

This data set has as its target T1, PUF4 RNA-binding domain. As to the kind of experiment: Mg; RNA-MaP; 20 mM Na-HEPES pH 7.4, 30 mM KOAc, 0.75 mM MgCl2, 0.1% Tween-20, 5% glycerol, 0.1 mg/mL BSA, 2 mM DTT; 25 C; 0.0125-409.6 nM protein. The note with it: tags: N-His6-TEV cleaved; C-SNAP kept, Cy3B-labelled; label: tethered on chip by stalled RNA polymerase.
ACAAACUAUACACUAUAUAACAAAC (ssRNA) [Id_iii_S3_P3E.7_K3.3_C3.3_[C-2A]_H3.3_A3.1_F3.1_T3.2] had a dissociation constant Kd of 32.5 nM. This counts as double-digit nanomolar.
The figure for ACAAACUCUUAUAUAUACAACAAAC (ssRNA) [Id_iii_S3_P3E.6_K3.2_C3.3_H3.2_A3.1_F3.1_T3.2_[T9C]] is 693 nM; for ACAAACUCAACACUAUAUAACAAAC (ssRNA) [Id_iii_S3_P3E.7_K3.3_C3.3_[T-1A]_H3.3_A3.1_F3.1_T3.2] it is 1780 nM; for B1 it is 0.43 nM.
With B2, the Kd was found to be 1.75 nM. Against the preceding molecule, the Kd is about 4.1-fold higher.
In the case of B3 it was 91.7 nM.
The figure for B4 is 7.5 nM.
The molecule ACAAACACUACACUAUAUAACAAAC (ssRNA) [Id_iii_S3_P3E.7_K3.3_C3.3_[T-3A]_H3.3_A3.1_F3.1_T3.2] had a dissociation constant Kd of 760 nM.
In the case of ACAAACUUUUAUAUAUAUAACAAAC (ssRNA) [Id_iii_S3_P3E.6_K3.2_C3.3_[C-2T]_H3.2_A3.1_F3.1_T3.2] it was 598 nM; in that of ACAAACUCCUAUAUAUAUAACAAAC (ssRNA) [Id_iii_S3_P3E.6_K3.2_C3.3_[T-1C]_H3.2_A3.1_F3.1_T3.2], 218 nM.
Turning to ACAAACCCUUAUAUAUAUAACAAAC (ssRNA) [Id_iii_S3_P3E.6_K3.2_C3.3_[T-3C]_H3.2_A3.1_F3.1_T3.2], binding was put at a Kd of 446 nM.
B5 registered a Kd of 2.01 nM.
For the molecule B6, the affinity, expressed as Kd, was 2.65 nM.
In the case of B7 it was 823 nM; in that of B8, 579 nM.
On to B9, for which the Kd came out at 5.82 nM.
In turn, B10 showed a Kd of 2160 nM.
The figure for B11 is 3.6 nM; for B12 it is 6.61 nM; for B13 it is 8.91 nM.
B14 showed a Kd of 963 nM. Compared with the last molecule, the Kd is about 110-fold higher.
B15 showed a Kd of more than 2300 nM.
Regarding B16, the Kd came out at 838 nM. This counts as sub-micromolar.
The figure for B17 is 8.09 nM; for B18 it is 40.3 nM; for B19 it is 15.4 nM.
Take B20: binding was characterised by a dissociation constant (Kd) of 1770 nM. This Kd lies about 110-fold higher than the previous one.
In the case of UCUCUUUGUAACAUUAUCUCUU (ssRNA) [Ib_S1_P5E.1_K5.1_C5.1_H5.1_A5.1_[T5A]_[T6C]_F5.1_T5.1] it was 4.31 nM.
In turn, UCUCUUUGUAAAAUUAUCUCUU (ssRNA) [Ib_S1_P5E.1_K5.1_C5.1_H5.1_A5.1_[T5A]_[T6A]_F5.1_T5.1] gave a dissociation constant (Kd) of 10.6 nM. Against the preceding molecule, the Kd is about 2.5-fold higher.
In the case of B21 it was 11.7 nM; in that of UCUCUUGGUAUAUAUCUCUU (ssRNA) [Ia_S1_P3E.1_K3.1_C3.1_H3.1_[T1G]_A3.1_F3.1_T3.1], 2290 nM; in that of B22, 189 nM.
B23 gave a dissociation constant Kd of 158 nM.
The figure for B24 is 146 nM; for UCUCUUUGUAGUUUUAUCUCUU (ssRNA) [Ib_S1_P5E.1_K5.1_C5.1_H5.1_A5.1_[T5G]_[A7T]_F5.1_T5.1] it is 27.2 nM; for UCUCUUUGUAGUCUUAUCUCUU (ssRNA) [Ib_S1_P5E.1_K5.1_C5.1_H5.1_A5.1_[T5G]_[A7C]_F5.1_T5.1] it is 93.7 nM.
ACAAACUCCACACUAUUAGUACAAAC (ssRNA) [Id_iii_S3_P4E.7_K4.3_C4.3_[T-1C]_H4.3_A4.1_F4.1_T4.2] showed a Kd of more than 2300 nM.
In the case of ACAAACUCUACACUAUAUUACAAAC (ssRNA) [Id_iii_S3_P3E.7_K3.3_C3.3_H3.3_A3.1_F3.1_T3.2_[A10T]] it was 922 nM; in that of B25, 1.77 nM.
The figure for B26 is 20.4 nM; for B27 it is 137 nM; for B28 it is 611 nM.
For the molecule B29, the Kd was 34.5 nM.
In the case of B30 it was 14.2 nM; in that of B31, 25.8 nM.
Turning to B32, the Kd turned out to be 0.724 nM. This Kd is about 36-fold lower than that of the molecule before.
In the case of B33 it was 131 nM.
In the case of B34 it was 308 nM; in that of B35, 1.71 nM; in that of B36, 48.5 nM.
In the case of B37 it was 364 nM; in that of B38, 33.1 nM; in that of B39, 2.97 nM.

For the origin of these results see publication PMC9352680, “A comprehensive thermodynamic model for RNA binding by the Saccharomyces cerevisiae Pumilio protein PUF4”.
